From patent publication US20250361295A1

Assays:
[1] = target: human LILRA6 protein (human) (UniProt Q6PI73); assay: ELISA, LILRA6 protein
human LILRB4 (human) [2] = target: human LILRB4 (human) (UniProt Q8NHJ6); assay: cell-based or functional assay
human LILRB4 (human) [3] = target: human LILRB4 (human) (UniProt Q8NHJ6); assay: FACS, 293F-hLILRB4 cells
[4] = target: cynomolgus (Macaca fascicularis) LILRB4 (cynomolgus (Macaca fascicularis)); assay: FACS, CHO-S-cynoLILRB4 cells

human LILRB4 (human), sequence (Q8NHJ6 22-448): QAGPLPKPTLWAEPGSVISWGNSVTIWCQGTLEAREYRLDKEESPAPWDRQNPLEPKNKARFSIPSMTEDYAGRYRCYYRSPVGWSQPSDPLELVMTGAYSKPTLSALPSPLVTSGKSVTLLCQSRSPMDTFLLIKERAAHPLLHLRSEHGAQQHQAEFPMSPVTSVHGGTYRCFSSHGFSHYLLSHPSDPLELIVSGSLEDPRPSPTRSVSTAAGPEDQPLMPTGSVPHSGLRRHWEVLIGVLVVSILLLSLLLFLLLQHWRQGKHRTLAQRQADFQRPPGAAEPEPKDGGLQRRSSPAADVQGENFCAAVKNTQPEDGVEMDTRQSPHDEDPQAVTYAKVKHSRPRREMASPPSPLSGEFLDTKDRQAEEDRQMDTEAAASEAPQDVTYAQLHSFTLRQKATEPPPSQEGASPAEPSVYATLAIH
human LILRA6 protein (human), sequence (Q6PI73 24-447 limits assumed): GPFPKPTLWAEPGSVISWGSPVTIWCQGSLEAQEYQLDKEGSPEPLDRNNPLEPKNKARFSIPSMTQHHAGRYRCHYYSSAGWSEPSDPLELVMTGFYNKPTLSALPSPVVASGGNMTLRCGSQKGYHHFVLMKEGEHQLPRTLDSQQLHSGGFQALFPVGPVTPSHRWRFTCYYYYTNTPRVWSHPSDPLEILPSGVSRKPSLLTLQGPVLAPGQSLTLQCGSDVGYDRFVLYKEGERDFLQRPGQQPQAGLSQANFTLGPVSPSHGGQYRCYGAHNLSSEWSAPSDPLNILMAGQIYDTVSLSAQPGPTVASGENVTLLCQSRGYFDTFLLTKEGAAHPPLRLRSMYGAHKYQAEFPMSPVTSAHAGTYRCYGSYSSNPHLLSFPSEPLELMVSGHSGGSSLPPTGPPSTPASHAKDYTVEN

B1: NGM831 (antibody, V domains shown)
VH: EVQLQQSGPEVKPGASVKISCKASGYTFTDYNMDWVKQSHGKSEWIGYIYPSNGGTGYNQKFKSKATLTVDKSSNTAYMELHSLTSEDSAVYYCARVPYYDYLYYYAMDYWGQGTSVTVSS
VL: QIVLSQSPAILSASPGEKVTMACRASSSVSFMHWYQQKPGSSPQPWIYATSNLASGVPARFSGSGSGTSYSLTISRVEAEDAATYYCQQWSTNPYMYTFGGGTKLEIK
Binder B1 has an ELISA(OD450) [1] of 1.32 OD450, an ADCP (%) at 133.3 nM, macrophages and MV-4-11 cells (human LILRB4 (human) [2]) of 6.37% and an EC50 (nM), ADCC on THP-1 cells (human LILRB4 (human) [2]) of 488 nM. For the same binder, the FcγR stimulation (TNF-α, pg/mL) (human LILRB4 (human) [2]) was 261 pg/mL, the Fold change (Compared to isotype) (human LILRB4 (human) [2]) was 8.26 fold and the Max cell cytotoxicity (%), ADCC on THP-1 cells (human LILRB4 (human) [2]) was -6.89%. For the same binder, the EC50 (human LILRB4 (human) [3]) was 4.39 nM, the Max MFI (human LILRB4 (human) [3]) was 30400 MFI and the Max MFI [4] was 822 MFI.

B2: ch48-E11-H7-B5 (antibody, V domains shown)
VH: EVQLVESGGGLVKPGGSLKLSCAASGFTFSSYAMSWVRQTPEKRLEWVASITIGDDTYYPDSVKGRFTISRDHAKNILYLQVSSLRSEDTAMYSCARGVNSYGSSYRYFDVWGAGTTVTVSS
VL: DIVMTQSHKFMSTSVGDRVSITCKASQDVSTAVAWYQQKPGQSPKLLIYWASTRHTGVPDRFTGSGSGTDYTLTISSVQAEDLALYYCQQHYSIPFTFGAGTKLEK
Binder B2 has an ELISA(OD450) [1] of 0.302 OD450.
